In paper PMC4497479, “Molecular characterization of an MYB transcription factor from a succulent halophyte involved in stress tolerance”:

B1: RD22 (dsDNA)
DNA 1: CTTCTAACCACTACGTGCCTTCTGCTCCTTCTGC
DNA 2: GCAGAAGGAGCAGAAGGCACGTAGTGGTTAGAAG
B2: MBS-1 (dsDNA)
DNA 1: CGAGACACCCTAACTGACACACATTCT
DNA 2: AGAATGTGTGTCAGTTAGGGTGTCTCG
B3: RD29a DRE (dsDNA)
DNA 1: TAAAAGATATACTACCGACATGAGTTCCAAAAAGC
DNA 2: GCTTTTTGGAACTCATGTCGGTAGTATATCTTTTA

target: SbMYB44 (Salicornia brachiata, UniProt X2J380 1-269); assay: EMSA; 15 mM HEPES, 35 mM KCl, 4 mM EDTA (pH 8.0), 1 mM DTT, 1 mM MgCl2, 6% glycerol, room temperature 20 min; 80 ng probe, 40 ug protein in Methods (ng in Results/Fig. 5); SYBR Green stain; details: protein: recombinant; tags: 6xHis (pET28a, EcoRI/XhoI); blunt
Sequence (X2J380 entry or part of it): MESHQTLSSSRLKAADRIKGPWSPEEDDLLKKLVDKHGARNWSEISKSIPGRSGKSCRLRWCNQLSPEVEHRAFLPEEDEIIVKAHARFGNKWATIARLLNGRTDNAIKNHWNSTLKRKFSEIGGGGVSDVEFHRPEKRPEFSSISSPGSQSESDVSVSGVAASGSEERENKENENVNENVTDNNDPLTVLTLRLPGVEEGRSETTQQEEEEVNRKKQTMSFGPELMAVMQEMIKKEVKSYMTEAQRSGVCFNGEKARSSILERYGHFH

Binder	binding result
B1	binds
B2	binds
B3	no binding
